Substitutions are numbered along the chain they refer to. Values belong to the binder of their own block, whether it stands above or below them.
Molecular target: human IL-21 receptor (human, UniProt Q9HBE5 20-232, limits assumed)
Assay: KD at 37 C; method and format not stated

Chain of human IL-21 receptor (Q9HBE5 20-232 limits assumed): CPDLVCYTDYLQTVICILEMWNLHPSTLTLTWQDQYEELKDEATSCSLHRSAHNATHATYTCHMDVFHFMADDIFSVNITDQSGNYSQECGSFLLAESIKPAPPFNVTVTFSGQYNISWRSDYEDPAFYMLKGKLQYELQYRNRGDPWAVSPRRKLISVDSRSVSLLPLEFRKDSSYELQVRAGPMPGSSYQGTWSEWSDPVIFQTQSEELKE

Kd: 6.06 µM
B1: IL-21 v31.23 (ligand)
chain: QGQDRHMIRMRQLIDIVDQLKNYVNDLVPEFLPAPEDVETNCEWSAFSCFQKAQLKSANTGNNERIINVSIKKLKQKPPGGEGGGGGGGEGGCPSCDSYEKKPPKEFLERFKSLLQKMIHQHLSSRTHGSEDS
notes: also called hIL21 v31.23

Kd: 7.73 µM
B2: IL-21 v31.51 (ligand)
chain: B1 chain with R9G, Q76R
notes: also called hIL21 v31.51

Reference: patent publication US20250339519A1 (ASHER BIOTHERAPEUTICS, published 2025)
